Data published in paper PMC3203869, “Altered Antibiotic Transport in OmpC Mutants Isolated from a Series of Clinical Strains of Multi-Drug Resistant E. coli” (PLoS ONE, 2011).

What was measured:
Assay in all cases: crystal structure; purified OmpC in detergent (0.6% HESO + 0.1% OPOE, or 1% βOG), crystals grown at 20°C or room temperature; trimer in the crystal
[1] = biological target: OmpC26 (E. coli (clinical isolate)) (UniProt P06996)
[2] = biological target: OmpC20 (E. coli (clinical isolate)) (UniProt P06996)
[3] = biological target: the molecule itself

Molecule: OmpC26 (from UniProt P06996 22-367) (natural protein)
- stoichiometry N [1]: 3

Molecule: OmpC20 (from UniProt P06996 22-367) (natural protein)
- stoichiometry N [2]: 3

B1: OmpCO6 (natural protein)
chain: AEVYNKDGNKLDLYGKVDGLHYFSDDKSVDGDQTYMRLGFKGETQVTDQLTGYGQWEYQIQGNAPESENNSWTRVAFAGLKFQDIGSFDYGRNYGVVYDVTSWTDVLPEFGGDTYGSDNFMQQRGNGFATYRNTDFFGLVDGLNFAVQYQGQNGSVSGENDPDFTGHGITNNGRKALRQNGDGVGGSITYDYEGFGVGAAVSSSKRTWDQNNTGLIGTGDRAETYTGGLKYDANNIYLAAQYTQTYNATRVGSLGWANKAQNFEAVAQYQFDFGLRPSVAYLQSKGKNLGVVAGRNYDDEDILKYVDVGATYYFNKNMSTYVDYKINLLDDNQFTRAAGINTDDIVALGLVYQF
notes: gene amplified by PCR and expressed from pHSG575; Trimer in the crystal; also called OmpC from uropathogenic E. coli O6:H1; source: E. coli strain lacking porins, plasmid pHSG575; purified (detergent extraction, POROS-HQ anion exchange, Superdex 200 gel filtration)
- stoichiometry N [3]: 3
